Reference: patent publication US20160200815A1

What was measured:
[1] = molecular target: hTIM3-Fc murine C′C″ loop (human, C′C″ loop replaced by mouse TIM-3); assay: ELISA, construct coated on plate
[2] = molecular target: hTIM3-Fc WT (human); assay: ELISA, construct coated on plate
[3] = molecular target: hTIM3-Fc murine DE loop (human, DE loop replaced by mouse TIM-3); assay: ELISA, construct coated on plate
[4] = molecular target: hTIM3-Fc murine CC′ loop (human, CC′ loop replaced by mouse TIM-3); assay: ELISA, construct coated on plate
[5] = molecular target: hTIM3-Fc murine BC loop (human, BC loop replaced by mouse TIM-3); assay: ELISA, construct coated on plate
[6] = molecular target: hTIM3-Fc murine FG loop (human, FG loop replaced by mouse TIM-3); assay: ELISA, construct coated on plate
[7] = molecular target: human TIM-3 on cells (human) (UniProt Q8TDQ0); assay: cell-based or functional assay

Q: “anti-TIM-3 mAb F38-2E2 (BioLegend, 345010) (antibody)” was tested. Which Absorbance at 450 nm [1] did it give?
A: The Absorbance at 450 nm was 1.48 A450.

Q: What about the Absorbance at 450 nm [2] of the same substance?
A: Its Absorbance at 450 nm is 1.34 A450.

Q: And the Absorbance at 450 nm [3]?
A: Its Absorbance at 450 nm is 0.978 A450.

Q: And the Absorbance at 450 nm [4]?
A: The Absorbance at 450 nm was 0.094 A450.

Q: What about the Absorbance at 450 nm [5] of the same substance?
A: Its Absorbance at 450 nm is 1.23 A450.

Q: What about the Absorbance at 450 nm [6] of the same substance?
A: Its Absorbance at 450 nm is 1.48 A450.

Q: What about the IL-2 secretion by SEB-activated PBMCs (% of the activity of anti-PD-L1) [7] of the same substance?
A: Its IL-2 secretion by SEB-activated PBMCs (% of the activity of anti-PD-L1) is 50.
